Patent publication US20210261685A1

Molecular target: human MerTK endogenously expressed on cells (SK-MEL-5 cells; human macrophages) (human) (UniProt Q12866)
Assay: cell-based or functional assay

Chain of human MerTK endogenously expressed on cells (SK-MEL-5 cells; human macrophages) (human) (Q12866 21-999 limits assumed): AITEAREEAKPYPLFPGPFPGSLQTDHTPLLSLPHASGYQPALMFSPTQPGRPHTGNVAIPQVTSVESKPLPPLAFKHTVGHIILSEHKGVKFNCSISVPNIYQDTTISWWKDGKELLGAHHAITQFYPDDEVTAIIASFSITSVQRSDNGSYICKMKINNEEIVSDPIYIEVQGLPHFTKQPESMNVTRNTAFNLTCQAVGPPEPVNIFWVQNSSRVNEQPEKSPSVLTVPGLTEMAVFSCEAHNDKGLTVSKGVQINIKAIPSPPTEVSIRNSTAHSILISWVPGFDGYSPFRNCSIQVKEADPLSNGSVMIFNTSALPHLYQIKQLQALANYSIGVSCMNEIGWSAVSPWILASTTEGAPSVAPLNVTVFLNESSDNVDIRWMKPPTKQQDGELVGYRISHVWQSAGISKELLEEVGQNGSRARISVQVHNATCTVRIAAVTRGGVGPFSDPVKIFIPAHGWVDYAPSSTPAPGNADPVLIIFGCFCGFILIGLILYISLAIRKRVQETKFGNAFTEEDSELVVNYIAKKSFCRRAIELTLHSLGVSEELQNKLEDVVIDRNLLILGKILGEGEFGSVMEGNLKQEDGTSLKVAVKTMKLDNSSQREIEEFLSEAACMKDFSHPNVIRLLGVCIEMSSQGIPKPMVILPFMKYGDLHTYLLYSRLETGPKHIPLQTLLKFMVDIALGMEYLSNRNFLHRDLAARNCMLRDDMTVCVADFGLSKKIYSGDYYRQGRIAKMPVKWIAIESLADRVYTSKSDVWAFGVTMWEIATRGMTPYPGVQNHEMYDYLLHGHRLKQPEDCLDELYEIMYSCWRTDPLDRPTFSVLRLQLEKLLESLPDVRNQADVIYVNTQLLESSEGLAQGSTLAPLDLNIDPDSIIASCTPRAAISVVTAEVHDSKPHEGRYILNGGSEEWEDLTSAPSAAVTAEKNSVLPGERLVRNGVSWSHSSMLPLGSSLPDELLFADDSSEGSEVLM

B1: MTK-22 (antibody, human IgG1, V domains shown)
VH: QVQLQQPGADLVEPGASVKLSCKASGYTFTSYWMHWVKQRPGQGLEWIGEIDPSDSSSNYNQKFKGKATLTVDKSSSTAYMHLNSLTSEDSAVYYCARRYYYGSLYFDNWGQGTTLTVSS
VL: DVVMTQSHKFMSTSVGDRVSITCKASQDVGTAIAWYQQKPGQSPKLLIYWASTRHTGVPDRFTGSRSGTVFTLTISNVQSEDLADYFCQQYTSYPLTFGSGTKLEIK
Gas6-mediated pAKT activity, average IC50, human M2c macrophages: 0.531 nM
